In US20010029293A1 one finds % Inhibition CD18-Dependent Binding (SKW3), % inhibition of neutrophil binding to ICAM-R and Inhibition (%) of CD18-dependent JY cell binding data, which are given here for 3 substances.

The target of test [1] is LFA-1 (CD11a/CD18) on cells (human) (UniProt P20701). The test can be described thus: cell adhesion to coated shICAM-R, peptide 1-2 mg/ml.
Test [2] has the same target. The test can be described thus: neutrophil adhesion to coated ICAM-R/Ig, mAb 15 µg/ml.
For test [3] the target is unchanged. Kind of test: JY cell adhesion to coated shICAM-R, mAb 10 µg/ml.

Chain of LFA-1 (CD11a/CD18) on cells (human) (P20701 26-1170, chain 1 of 2): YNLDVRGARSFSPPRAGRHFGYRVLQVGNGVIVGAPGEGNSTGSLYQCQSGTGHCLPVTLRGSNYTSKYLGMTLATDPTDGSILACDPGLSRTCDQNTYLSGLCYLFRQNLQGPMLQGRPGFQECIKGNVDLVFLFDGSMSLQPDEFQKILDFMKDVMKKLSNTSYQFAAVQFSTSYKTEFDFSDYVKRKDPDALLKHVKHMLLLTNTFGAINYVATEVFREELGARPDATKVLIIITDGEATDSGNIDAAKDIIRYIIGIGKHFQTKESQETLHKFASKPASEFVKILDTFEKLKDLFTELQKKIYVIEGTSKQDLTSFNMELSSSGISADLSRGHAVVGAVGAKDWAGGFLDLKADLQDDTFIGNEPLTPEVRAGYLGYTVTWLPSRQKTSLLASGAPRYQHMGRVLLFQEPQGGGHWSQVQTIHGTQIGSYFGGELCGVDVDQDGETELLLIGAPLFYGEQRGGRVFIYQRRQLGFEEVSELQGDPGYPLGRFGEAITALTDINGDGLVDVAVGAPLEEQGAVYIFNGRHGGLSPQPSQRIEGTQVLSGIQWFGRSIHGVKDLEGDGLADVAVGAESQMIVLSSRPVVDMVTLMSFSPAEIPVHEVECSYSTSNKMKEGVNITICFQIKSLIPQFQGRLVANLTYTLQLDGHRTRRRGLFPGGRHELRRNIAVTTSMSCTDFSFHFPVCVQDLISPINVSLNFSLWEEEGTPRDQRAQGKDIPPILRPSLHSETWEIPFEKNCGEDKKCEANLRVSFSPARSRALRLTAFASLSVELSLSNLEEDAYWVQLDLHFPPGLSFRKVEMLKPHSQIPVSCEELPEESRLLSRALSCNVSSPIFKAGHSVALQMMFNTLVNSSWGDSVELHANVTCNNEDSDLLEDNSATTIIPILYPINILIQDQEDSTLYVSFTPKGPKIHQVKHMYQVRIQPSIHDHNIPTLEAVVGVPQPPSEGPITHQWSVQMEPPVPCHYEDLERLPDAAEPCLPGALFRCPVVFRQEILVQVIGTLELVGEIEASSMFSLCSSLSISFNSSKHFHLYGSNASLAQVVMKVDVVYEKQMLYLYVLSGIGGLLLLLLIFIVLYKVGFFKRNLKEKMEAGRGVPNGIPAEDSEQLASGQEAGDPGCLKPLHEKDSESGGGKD
Chain of LFA-1 (CD11a/CD18) on cells (human) (P05107 23-769, chain 2 of 2, further chain): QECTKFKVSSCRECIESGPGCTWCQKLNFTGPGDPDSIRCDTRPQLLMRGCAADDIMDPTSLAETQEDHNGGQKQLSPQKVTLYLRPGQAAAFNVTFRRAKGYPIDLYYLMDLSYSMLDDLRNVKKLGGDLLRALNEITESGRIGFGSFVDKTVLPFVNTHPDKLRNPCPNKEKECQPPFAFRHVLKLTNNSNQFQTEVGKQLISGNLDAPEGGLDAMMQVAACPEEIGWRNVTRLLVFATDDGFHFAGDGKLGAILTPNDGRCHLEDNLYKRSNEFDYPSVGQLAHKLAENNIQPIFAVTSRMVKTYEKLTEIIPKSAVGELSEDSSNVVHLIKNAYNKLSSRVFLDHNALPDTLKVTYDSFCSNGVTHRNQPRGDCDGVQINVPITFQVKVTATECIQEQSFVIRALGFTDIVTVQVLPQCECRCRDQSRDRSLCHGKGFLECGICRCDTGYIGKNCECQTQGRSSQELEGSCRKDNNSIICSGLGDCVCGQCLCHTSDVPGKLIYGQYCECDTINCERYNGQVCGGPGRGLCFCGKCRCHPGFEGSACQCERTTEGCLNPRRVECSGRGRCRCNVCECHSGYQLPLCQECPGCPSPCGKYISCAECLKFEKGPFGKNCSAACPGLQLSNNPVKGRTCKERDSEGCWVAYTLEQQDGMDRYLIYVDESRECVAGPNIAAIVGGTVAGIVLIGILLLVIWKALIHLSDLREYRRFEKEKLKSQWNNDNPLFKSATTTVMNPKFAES

ICAM-R peptide 72-76 (NGSQI): the % Inhibition CD18-Dependent Binding (SKW3) in test [1] was 26%.

The substance TS1/22 (antibody) showed a % inhibition of neutrophil binding to ICAM-R in test [2] of 50%. 60.3 (antibody) had an Inhibition (%) of CD18-dependent JY cell binding in test [3] of 100%.
